Three molecules from patent US20260193348A1 (ANTENGENE BIOLOGICS, published 2026) can be followed below.

Like-named read-outs stand apart in the source and are kept apart here.

The target in experiment [1] is T1, GPRC5D (G-protein coupled receptor family C group 5 member D), human, on multiple myeloma cell lines (human, UniProt Q9NZD1 1-345).
T1 construct: whole, on cells; Target as carried by MM.1S, MOLP-8, L363 and RPMI8226 cells
The experiment can be described thus: FACS, MOLP-8 cells. On the procedure:
(§1) The binding affinities of the generated humanized Fab-scFv-Fab bispecific antibodies were determined by FACS analysis. […] (a) Jurkat cells were washed by Staining Buffer (PBS+1% BSA) in round bottom 96-well plate. [0833] (b) Antibody dilutions and cells were added to each well, incubated at 4 degrees for 1 hour. [0834] (c) Cells were spined down at 300 g for 3 minutes, and the supernatants were discarded. [0835] (d) Cells were washed with Staining Buffer. […] (e) Step (d) was repeated and the cells were incubated for 0.5 hours at 4 degrees with secondary antibody in Staining Buffer. [0837] (f) After incubation, step (d)-(e) were repeated. […] (g) Staining Buffer was added and fluorescence signals were recorded by flow cytometry.
(§2) The binding affinities of the generated humanized Fab-scFv-Fab bispecific antibodies to different multiple myeloma cell lines were evaluated by FACS analysis. The protocol for FACS analysis is identical to that described in Example 3.2, except that different cells were used in this example, i.e., multiple myeloma cell lines (MM.1S, […], L363 and RPMI 8226) were used in this example.
(In general: Flow cytometry measures light scatter and fluorescence of single cells or particles in a stream.)

The target of experiment [2] is T2, CD3 (Cluster of Differentiation 3 protein), human, on T cells / Jurkat cells (human, UniProt P07766 23-207; P04234 22-171; P09693 23-182).
T2 construct: whole, on cells; part of the TCR-CD3 complex; also called human CD3
T2 sequence (P07766 23-207, chain 1 of 3): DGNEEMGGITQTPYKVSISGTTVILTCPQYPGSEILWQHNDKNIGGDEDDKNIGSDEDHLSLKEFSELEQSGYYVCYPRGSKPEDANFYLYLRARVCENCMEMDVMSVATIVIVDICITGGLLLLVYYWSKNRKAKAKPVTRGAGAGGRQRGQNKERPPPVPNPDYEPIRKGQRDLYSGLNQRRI
T2 sequence (P04234 22-171, chain 2 of 3): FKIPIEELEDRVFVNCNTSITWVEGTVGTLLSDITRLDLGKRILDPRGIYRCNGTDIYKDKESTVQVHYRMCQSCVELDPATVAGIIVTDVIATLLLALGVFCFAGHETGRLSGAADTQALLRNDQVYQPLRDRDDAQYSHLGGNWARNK
T2 sequence (P09693 23-182, chain 3 of 3): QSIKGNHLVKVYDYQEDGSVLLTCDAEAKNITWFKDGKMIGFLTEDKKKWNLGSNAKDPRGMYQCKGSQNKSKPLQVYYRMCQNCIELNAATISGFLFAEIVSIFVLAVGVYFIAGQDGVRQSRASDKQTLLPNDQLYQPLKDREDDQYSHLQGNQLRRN
The experiment can be described thus: FACS, Jurkat cells, antibody at 50 µg/ml. A digest of the protocol:
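Jurkat cells in PBS + 1% BSA were incubated with humanized Fab-scFv-Fab bispecific antibody dilutions for 1 hour at 4 degrees, then washed. A secondary antibody was applied for 0.5 hours at 4 degrees. Binding was read as fluorescence by flow cytometry.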

Experiment [3] concerns the target T1, GPRC5D (G-protein coupled receptor …). The experiment can be described thus: FACS, MM.1S cells. On the procedure:
as §1, §2

Experiment [4] shares this target. As to the kind of experiment: cell-based or functional assay.
For experiment [5] the target is unchanged. As to the kind of experiment: cell-based or functional assay. The source holds these as a separate data set.
The target of experiment [6] is T2, CD3 (Cluster of Differentiation 3 …). The experiment can be described thus: FACS, CD3+ T cells isolated from normal donors. On the procedure: To evaluate the binding affinity of the generated chimeric bispecific antibody to T cells, the isolated CD3⁺ T cells were stained by antibodies and the binding affinity was determined by FACS analysis. The protocol of FACS analysis is described as follows: [0785] (a) CD3⁺ T cells were isolated from normal donors. [0786] (b) The isolated CD3⁺ T cells were washed by Staining Buffer (PBS+1% BSA) in round bottom 96-well plate. […] (c) Antibody dilutions were added to each well and mixed with the CD3+ T cells, incubated at 4 degrees for 1 hour. […] (d) Cells were spined at 300 g for 3 minutes, then the supernatants were discarded. [0789] (e) Cells were washed with Staining Buffer. [0790] (f) Step (d) was repeated, and the cells were incubated with secondary antibody in Staining Buffer for 0.5 hours at 4 degrees. [0791] (g) After incubation, step (d)-(e) were repeated. [0792] (h) Cells were resuspended in Staining Buffer and fluorescence signals were recorded by flow cytometry.

The target of experiment [7] is T1, GPRC5D (G-protein coupled receptor …). The experiment can be described thus: cell-based or functional assay. This is another data set of the same source.
For experiment [8] the target is unchanged. As to the kind of experiment: cell-based or functional assay. The source holds these as a separate data set.

T1 sequence (Q9NZD1 whole entry): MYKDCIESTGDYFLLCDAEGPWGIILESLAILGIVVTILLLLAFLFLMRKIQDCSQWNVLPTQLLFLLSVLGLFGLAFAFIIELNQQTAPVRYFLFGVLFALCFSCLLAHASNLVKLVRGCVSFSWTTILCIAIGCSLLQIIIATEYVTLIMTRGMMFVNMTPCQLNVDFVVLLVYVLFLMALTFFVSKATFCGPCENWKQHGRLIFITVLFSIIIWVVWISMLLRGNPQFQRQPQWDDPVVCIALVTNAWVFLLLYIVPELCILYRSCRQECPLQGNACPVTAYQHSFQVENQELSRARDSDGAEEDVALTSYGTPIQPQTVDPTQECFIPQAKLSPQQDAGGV

B1: Bis-40E9-L2H3-Y54G.H (bispecific antibody)
heavy: EVQLVQSGAEVKKPGASVKVSCKASGYTFTSYVIHWVRQAPGQGLEWMGYFNPYNDGTKYNEEFKGRVTLTSDKSTSTAYMELRSLRSDDTAVYYCARGGVRRYFDVWGQGTTVTVSS
heavy (part 1 of 2): B1 heavy
heavy (part 2 of 2): GGGGSGGGGSEVQLVQSGAEVKKPGSSVKVSCKASGYTFSSYVIHWVRQAPGQCLEWMGYINPGNDVIKYNEKFKGRVTLTSDKSTSTAYMELSSLRSEDTAVYYCARDSYYSYDGFAYWGQGTLVTVSSGGGGSGGGGSGGGGSGGGGSEIVLTQSPDFQSVTPKEKVTITCSASSSVSYMHWYQQKPDQSPKRLIYDTSKLASGVPSRFSGSGSGTDFTLTINSLEAEDAATYYCQQWSSNPPTFGCGTKVEIKGGGGSGGGGS
light: DIQMTQSPSSLSASVGDRVTITCRASQDIGSNLNWLQQKPGKAIKRLIYATFGLDSGVPSRFSGSRSGTDFTLTISSLQPEDFATYYCQQYASFPYTFGGGTKVEIK
notes: Fab-scFv-Fab (2+1), LALA; not shown: CH1; CL; CH2-CH3 with L234A, L235A; heavy chain constant region with L234A, L235A
On to B1, for which, in experiment [1], the EC50 (in general, the concentration needed to bring the measured effect to its halfway point) was 0.398 nM and the “Top (MFI)” value was found to be 952 MFI. Also, the “MFI (50 µg/ml)” value in experiment [2] was determined as 137 MFI. In experiment [3], it took 8.93 nM to reach a half-maximal effect (EC50) and the “Top (MFI)” value turned out to be 1330 MFI. Besides, in experiment [4], the “EC50 (nM), luciferase assay, L363” value was 0.0525 nM; the “EC50 (nM), luciferase assay, MM.1S” value was determined as 0.0506 nM; the “EC50 (nM), luciferase assay, MOLP-8” value was 0.0455 nM; the “Top (RLU), luciferase assay, L363” value came to 776 RLU. Also, in experiment [4], the “Top (RLU), luciferase assay, MM.1S” value amounted to 5840 RLU and the “Top (RLU), luciferase assay, MOLP-8” value was determined as 1060 RLU. For the same molecule, in experiment [5], the “IC50 (nM), T-Cell Dependent Cytotoxicity, MM.1S” value (“IC50 (nM) … MM.1S” for short) amounted to 0.00726 nM; the “IC50 (nM), T-Cell Dependent Cytotoxicity, MOLP-8” value (from here on “IC50 (nM) … MOLP-8”) was determined as 0.00117 nM; the “IC50 (nM), T-Cell Dependent Cytotoxicity, RPMI8226” value (shortened to “IC50 (nM) … RPMI8226”) was determined as 0.0453 nM; the “Top (%), T-Cell Dependent Cytotoxicity, MM.1S” value amounted to 75.5%. Moreover, in experiment [5], the “Top (%), T-Cell Dependent Cytotoxicity, MOLP-8” value was 68.7% and the “Top (%), T-Cell Dependent Cytotoxicity, RPMI8226” value stood at 10.4%.

B2: JNJ-64407564 (bispecific antibody, V domains shown)
VH 1: QVQLVQSGAEVKKPGASVKVSCKASGYSFTGYTMNWVRQAPGQGLEWMGLINPYNSDTNYAQKLQGRVTMTTDTSTSTAYMELRSLRSDDTAVYYCARVALRVALDYWGQGTLVTVSS
VL 1: DIQMTQSPSSLSASVGDRVTITCKASQNVATHVGWYQQKPGKAPKRLIYSASYRYSGVPSRFSGSGSGTEFTLTISNLQPEDFATYYCQQYNRYPYTFGQGTKLEIK
VH 2: EVQLVESGGGLVQPGGSLRLSCAASGFTFNTYAMNWVRQAPGKGLEWVARIRSKYNNYATYYAASVKGRFTISRDDSKNSLYLQMNSLKTEDTAVYYCARHGNFGNSYVSWFAYWGQGTLVTVSS
VL 2: QTVVTQEPSLTVSPGGTVTLTCRSSTGAVTTSNYANWVQQKPGQAPRGLIGGTNKRAPGTPARFSGSLLGGKAALTLSGVQPEDEAEYYCALWYSNLWVFGGGTKLTVL
notes: construct per WO2018017786A2; also called benchmark antibody
Regarding B2, the “MFI (50 µg/ml)” value in experiment [2] came to 1030 MFI. Further, in experiment [6], a half-maximal response (EC50) required 11.4 nM and the “Top (MFI)” value was 534 MFI.

B3: RG6234 (bispecific antibody, human IgG1, kappa, L234A L235A)
heavy 1: EVQLVESGGGLVQPGRSLKLSCAASGFSFSNYGMAWVRQAATKGLEWVASISTGGGNTYYRDSVKGRFIVSRDNAKNTQYLQMDSLRSEDTATYYCTRHDRGGLYWGQGVMVTVSSASTKGPSVFPLAPSSKSTSGGTAALGCLVEDYFPEPVTVSWNSGALTSGVHTFPAVLQSSGLYSLSSVVTVPSSSLGTQTYICNVNHKPSNTKVDEKVEPKSCDKTHTCPPCPAPEAAGGPSVFLFPPKPKDTLMISRTPEVTCVVVDVSHEDPEVKFNWYVDGVEVHNAKTKPREEQYNSTYRVVSVLTVLHQDWLNGKEYKCKVSNKALGAPIEKTISKAKGQPREPQVCTLPPSRDELTKNQVSLSCAVKGFYPSDIAVEWESNGQPENNYKTTPPVLDSDGSFFLVSKLTVDKSRWQQGNVFSCSVMHEALHNHYTQKSLSLSPGK
heavy 2: not shown
light 1: DIVMTQAPLSVSVTPGESASISCRSSKSLLHSNGITYVYWYFQKPGKSPQVLIYRMSNLASGVPDRFSGSGSETDFTLKISRVEAEDVGIYHCGQLLENPYTFGAGTELELKRTVAAPSVFIFPPSDRKLKSGTASVVCLLNNFYPREAKVQWKVDNALQSGNSQESVTEQDSKDSTYSLSSTLTLSKADYEKHKVYACEVTHQGLSSPVTKSFNRGEC
light 2: EVQLLESGGGLVQPGGSLRLSCAASGFTFSTYAMNWVRQAPGKGLEWVSRIRSKYNNYATYYADSVKGRFTISRDDSKNTLYLQMNSLRAEDTAVYYCVRHGNFGNSYVSWFAYWGQGTLVTVSSRTVAAPSVFIFPPSDEQLKSGTASVVCLLNNFYPREAKVQWKVDNALQSGNSQESVTEQDSKDSTYSLSSTLTLSKADYEKHKVYACEVTHQGLSSPVTKSFNRGEC
notes: construct per WO2019154890A1; also called benchmark antibody RG6234 (Roche)
For B3, the “MFI (50 µg/ml)” value in experiment [2] worked out at 836 MFI. Besides, in experiment [7], the “EC50 (nM), luciferase assay, L363” value came to 44 nM; the “EC50 (nM), luciferase assay, MM.1S” value worked out at 0.334 nM; the “EC50 (nM), luciferase assay, MOLP-8” value was 0.756 nM; the “EC50 (nM), luciferase assay, RPMI8226” value was determined as 0.047 nM. In experiment [4], the “EC50 (nM), luciferase assay, L363” value worked out at 0.0532 nM; the “EC50 (nM), luciferase assay, MM.1S” value was 0.0397 nM; the “EC50 (nM), luciferase assay, MOLP-8” value amounted to 0.021 nM; the “EC50 (nM), luciferase assay, RPMI8226” value was 0.0929 nM. In addition, in experiment [4], the “Top (RLU), luciferase assay, L363” value stood at 1260 RLU; the “Top (RLU), luciferase assay, MM.1S” value came out at 3910 RLU; the “Top (RLU), luciferase assay, MOLP-8” value came to 1060 RLU; the “Top (RLU), luciferase assay, RPMI8226” value came to 616 RLU. In addition, in experiment [6], the response was half-maximal at 274 nM (EC50) and the “Top (MFI)” value came out at 2550 MFI. Also, in experiment [8], the “IC50 (nM), T-Cell Dependent Cytotoxicity, L363” value came out at 0.007 nM; the “IC50 (nM) … MM.1S” value turned out to be 0.006 nM; the “IC50 (nM) … MOLP-8” value was determined as 0.002 nM; the “IC50 (nM) … RPMI8226” value is 0.031 nM. In addition, in experiment [5], the “IC50 (nM) … MM.1S” value is 0.019 nM; the “IC50 (nM) … MOLP-8” value worked out at 0.00599 nM; the “IC50 (nM) … RPMI8226” value was 0.0899 nM; the “Top (%), T-Cell Dependent Cytotoxicity, MM.1S” value came to 77.2%. In addition, in experiment [5], the “Top (%), T-Cell Dependent Cytotoxicity, MOLP-8” value was determined as 53.4% and the “Top (%), T-Cell Dependent Cytotoxicity, RPMI8226” value turned out to be 8.1%.
